Test [1] deals with EGFP-Pro(K10R/Y12A) (Streptomyces mobaraensis). Kind of test: BLI. A general note: In BLI a coated tip is dipped into the sample, and binding shifts an interference pattern.
In test [2] the target is EGFP-Pro(K10R) (Streptomyces mobaraensis). Kind of test: BLI.

B1: ΔproMTG lacking the C-terminal His-tag (recombinant mature microbial transglutaminase) (enzyme)
chain: DSDDRVTPPAEPLDRMPDPYRPSYGRAETVVNNYIRKWQQVYSHRDGRKQQMTEEQREWLSYGCVGVTWVNSGQYPTNRLAFASFDEDRFKNELKNGRPRSGETRAEFEGRVAKESFDEEKGFQRAREVASVMNRALENAHDESAYLDNLKKELANGNDALRNEDARSPFYSALRNTPSFKERNGGNHDPSRMKAVIYSKHFWSGQDRSSSADKRKYGDPDAFRPAPGTGLVDMSRDRNIPRSPTSPGEGFVNFDYGWFGAQTEADADKTVWTHGNHYHAPNGSLGAMHVYESKFRNWSEGYSDFDRGAYVITFIPKSWNTAPDKVKQGWP
As to B1, the Kd (in general, a measure of binding affinity in units of concentration) in test [1] is 7.85 µM; in test [2] it was 0.019 µM.

The values are drawn from doi:10.1101/2023.10.09.561484.
